Data published in patent publication US11091546B2, “Optimized PNE-based chimeric receptor T cell switches and uses thereof” (The Scripps Research Institute, priority 2015, dated 2021).
Where “and” joins values, the source holds several entries; their conditions need not be identical. Identical values can stand only once.

B1: hP67.6 HCNT: anti-CD33 hP67.6 Fab, GCN4 on heavy chain N-terminus, rigid linker SEQ ID 45 (SEQ ID 231 & 220) (protein)
light: DIQLTQSPSTLSASVGDRVTITCRASESLDNYGIRFLTWFQQKPGKAPKLLMYAASNQGSGVPSRFSGSGSGTEFTLTISSLQPDDFATYYCQQTKEVPWSFGQGTKVEVKRTVAAPSVFIFPPSDEQLKSGTASVVCLLNNFYPREAKVQWKVDNALQSGNSQESVTEQDSKDSTYSLSSTLTLSKADYEKHKVYACEVTHQGLSSPVTKSFNRGEC
heavy: NYHLENEVARLKKLLVGEAAAKEAAAKAEVQLVQSGAEVKKPGSSVKVSCKASGYTITDSNIHWVRQAPGQSLEWIGYIYPYNGGTDYNQKFKNRATLTVDNPTNTAYMELSSLRSEDTAFYYCVNGNPWLAYWGQGTLVTVSSARTKGPSVFPLAPSSKSTSGGTAALGCLVKDYFPEPVTVSWNSGALTSGVHTFPAVLQSSGLYSLSSVVTVPSSSLGTQTYICNVNHKPSNTKVDKKVEPKSC
modifications: GCN4 on heavy chain N-terminus; Made in lab - CD33 (hP67.6) LCWT; Made in Lab - CD33 (hP67.6) HCNT1

Experiments:
RS4;11 (CD19 positive) = format: cell-based, human
Experimental: Activity was assessed against NALM-6 (CD19^+), RS4;11 (CD19^+), or RPMI-8226 (CD19^−) (Table 2). The activity of the IgG (FcNull) switch was assessed against RS4;11 (CD19^+), or K562 (CD19^−) (Table 2). The activity of the C-terminal switch was assessed against RS4;11 (CD19^+), or K562 (CD19^−) (Table 4).
sCAR-T cells were co-cultured (96-well plate round bottom; 20-24h; 37° C.; 5% CO2) with RS4;11 (CD19^+) or K562 (CD19^−) cells at a ratio of 10 sCAR-T cells to 1 RS4;11/K562 cell (110,000 cells in total) in 100 uL of RPMI-1640 supplemented with 5% heat inactivated fetal calf serum (Thermo), 1% penicillin-streptomycin (Gibco), 1% L-Glutamine (Gibco), 1 mM sodium pyruvate (Gibco) and 1% non-essential amino acids (Gibco). After 24 hours, each plate was centrifuged at 400×g for 5 minutes at 4° C. To measure target cell lysis, the intracellular protein lactate dehydrogenase (LDH) was measured in the cytotoxicity assay supernatants from the co-cultured cells using the CytoTox 96® Non-Radioactive Cytotoxicity Assay kit (Promega). To measure the effector responses of the sCART cells in vitro, cytokine levels were measured in the cytotoxicity assay supernatants using the Cytometric Bead Array (CBA) Human Th1/Th2 Cytokine Kit II (BD). […]
The GCN4 CAR design was therefore modified to contain the CD8 hinge region (used in CART-19), which has an extracellular CAR domain of approximately 80 Å, and an IgG4 hinge with an extracellular CAR domain of approximately 15-30 Å. An additional construct was developed where a mutation was introduced into the IgG4 hinge that allows for spontaneous disulphide bridge formation between receptor molecules (IgG4m). […] Briefly, activated PBMC were transduced with lentivirus (SEQ ID: 1) containing the anti-PNE CAR construct (SEQ ID: 180) with the CD8 (SEQ ID: 68), IgG4 (SEQ ID: 70) and IgG4m (SEQ ID: 71) hinge domains.
Monovalent and bivalent combinations of these switches were expressed in mammalian protein expression systems (HEK293 or CHO cells) and purified using protein-G columns. Switches were used in cytotoxicity assays at a dose titration within the range of 10 nM to 0.0001 nM. The activity of each switch combination was tested in vitro in the General cytotoxicity assays where LDH release, cytokine production and sCART cell activation were compared (FIGS. 11A-11C).
CAR-T or target cells were incubated with 1 pM to […] of switch in FACS buffer (PBS, 1% FCS, 2 mM EDTA) for 30 minutes at 4° C. before being washed twice and then incubated with the PE-conjugated goat-anti-human kappa antibody (1:100). Cells were washed two times and analyzed using the Accuri flow cytometer (BD). CAR-T cell activity was determined using the CytoTox 96® Non-Radioactive Cytotoxicity Assay (Promega). CAR-T cells were incubated with target cells in the presence of switch for 20-24 hours at 37° C. in complete RPMI with 5% FCS. At the end of the assay, 30 μL of cell free supernatant was added to 30 μL of the LDH assay reagent in a 96-well plate and incubated for 30 minutes at room temperature in the dark; 30 μL of stop solution was added before the plate was read at OD495.

Nalm-6^Luc/GFP cells = assay: Nalm-6 Luc/GFP leukemia xenograft; format: in vivo
Experimental: NSG mice were inoculated with CD19^+ Nalm-6^GFP/Luc cells. Six days later, 40×10^6 sCAR-T cells were delivered IV and switch dosing commenced every other day at 0.5 mg/kg for 10 days. Tumor burden was followed by luminescence after injection of luciferin and imaged on an in vivo imaging system (IVIS; PerkinElmer, Waltham, Mass., USA).
Asterisks indicate significance from LCNT Fab group. Data are represented as means±SEM, and statistical significance was calculated using the 2-way ANOVA with Bonferroni's post-test (B & E; shown for final time-point only) or by one-tailed student's t-test (C & F) where *=p<0.05, **=p<0.01 and ***=p<0.001.
NSG mice were inoculated with Nalm-6^GFP/Luc as described in FIG. 28. […] A fourth group consisted of two cohorts (n=3) of mice injected I.V. with sCAR-T cells without (−) LCNT Fab switch. LCNT Fab dosing in the indicated group was carried out daily at 0.5 mg/kg after the initial T cell infusion. Luminescence was measured at 6 h and subsequently every 24 h as indicated. Cohorts were sacrificed for analysis immediately following IVIS imaging. […] Gray lines indicate tumor burden in PBS and sCAR-T cell—LCNT Fab controls. […] Data are represented as means±SEM, and statistical significance was calculated using the one-tailed student's t-test (C & D) where *=p<0.05, **=p<0.01 and ***=p<0.001.
NSG mice were inoculated with Nalm6^GFP/Luc and six days later engrafted with short-dimeric sCAR-T cells as described in FIG. 29. […] Dosing was carried out for 15 d starting at day 6 (corresponding with sCAR-T cell infusion) as indicated by gray shading. Control groups CART-19 and PBS received no switch. The NS group received sCAR-T cells but no switch. Open circles denote the death of individual mice without evidence of tumor burden and may reflect GVHD. Triangles in PBS, NS and q.a.d. group indicate death due to increasing tumor burden. […] (19) indicates CART-19. […] (19) indicates CART-19. […] Triangles indicate the death of individual mice with significant tumor burden. The single mouse death in the 0.05 mg/kg group occurred while tumor burden was decreasing. […] Statistical significance was calculated using the one-tailed student's t-test (B, C & E) where *=p<0.05, **=p<0.01 and ***=p<0.001.
The different sCAR designs were tested in a xenograft model harboring luciferized NALM-6 (CD19+, CD80−, CD86−) cells. 1 mg/kg monovalent switch “A” was administered along with sCAR cells. […] Optimized hinge improved response. Short hinge CARs have faster clearance. Short, dimeric hinge CARs have improved persistence. Tumor burden was visualized with IVIS imaging. Experiments are repeated with a humanized scFv and bivalent switches.
Activity of the switchable CAR-T cell platform in vivo was evaluated via tumor regression in a Nalm-6^Luc/GFP leukemia xenograft model in immunodeficient NOD scid gamma (NSG) mice. These mice without treatment succumb to disease within 21 days. The impact of CAR hinge design on in vivo efficacy was determined using mice inoculated with Nalm-6^Luc/GFP, followed by I.V. injection of long, short, or short-dimeric sCAR-T cells 6 days later. The LCNT Fab was dosed I.V. (0.5 mg/kg) every other day for 10 days and tumor regression was followed by in vivo imaging (IVIS) of the luciferase signal from Nalm-6^Luc/GFP cells (FIG. 29A).
The effect of switch grafting position on the control of tumor burden was determined. As with the previous model, short-dimeric CAR-T cells were injected 6 days after tumor inoculation and mice were treated every other day (starting at day 6) with 0.5 mg/kg LCNT, HCNT, NTBV, LCC1, or HCCT Fab switches (FIG. 29D).
To determine the proliferation and localization of sCAR-T cell cytotoxicity during this time interval, mice were sorted into 5 cohorts per treatment regimen and analyzed at 8, 24, 48, 72, and 96 h after treatment with short-dimeric sCAR-T cells+LCNT Fab switch or with conventional CART-19 and no switch. […]

CD33+ MOLM14 cells = assay: Cytotoxicity assay, sCAR-T cells + anti-CD33 (hP67.6) switches; format: cell-based; design: unit not given here; conditions: duplicates
Text: (§1) FIG. 38A illustrates multiple fusion/grafting locations: A=LCNT1 (light chain N terminus version 1), B=HCNT3 (heavy chain N terminus version 3), C=heavy chain C terminus, and D=light chain C terminus). […] Data shown are an average of duplicate samples, and error bars represent SD. Only the NT switches plus the BvCT and By CH1CL1 as references are depicted.
(§2) Monovalent and bivalent combinations of these switches were expressed and tested in cytotoxicity assays at a dose titration within the range of 0.4 nM to 0.0001 nM. […] Data shown are an average of duplicate samples, and error bars represent SD. Only the NT switches plus the BvCT and By CH1CL1 as references are depicted. cytokine secretion was measured.

MOLM14 cell line = assay: Cytokines in cytotoxicity assay supernatant (CBA Human Th1/Th2 II Kit); format: cell-based; design: unit not given here; conditions: duplicates
Text: as §1, §2

Molecule	cytotoxicity (FIG. 38G) (CD33+ MOLM14 cells; switch 0.1 pM)	cytotoxicity (FIG. 38G) (CD33+ MOLM14 cells; switch 3.2 pM)	cytotoxicity (FIG. 38G) (CD33+ MOLM14 cells; switch 16 pM)	cytotoxicity (FIG. 38G) (CD33+ MOLM14 cells; switch 80 pM)	cytotoxicity (FIG. 38G) (CD33+ MOLM14 cells; switch 400 pM)	IFNg in supernatant (FIG. 38H) (MOLM14 cell line)	Il-2 in supernatant (FIG. 38H) (MOLM14 cell line)	TNFa in supernatant (FIG. 38H) (MOLM14 cell line)	also measured
anti-CD19 Fab HCCT: FMC63 anti-CD19 Fab, peptide on C-terminus of heavy chain (SEQ ID 27 & 34)									EC50 (RS4;11 (CD19 positive)): 0.02 ± 0.0009 nM; tumor burden (IVIS), switch graft position comparison (Nalm-6^Luc/GFP cells; short-dimeric sCAR-T cells, 0.5 mg/kg every other day from day 6): little control
anti-CD19 Fab WT: FMC63 anti-CD19 Fab with no grafted peptide (SEQ ID 27 & 29) [reference compound]									cytotoxicity (RS4;11 (CD19 positive)): did not induce significant cytotoxicity
anti-CD19 IgG LCNT: FMC63 anti-CD19 IgG, peptide on N-terminus of light chain (SEQ ID 36 & 28)									tumor burden (IVIS) (Nalm-6^Luc/GFP cells; IgG format, 0.5 mg/kg every 5 days for 15 days (3 doses)): unable to significantly control tumor burden; tumor growth (Nalm-6^Luc/GFP cells; IgG format, 1 mg/kg every day for 10 d): unable to control tumor growth
anti-CD19 IgG WT: FMC63 anti-CD19 IgG with no grafted peptide (SEQ ID 27 & 28) [reference compound]									cytotoxicity (RS4;11 (CD19 positive)): did not induce significant cytotoxicity
hP67.6 LCNT: anti-CD33 hP67.6 Fab, GCN4 on light chain N-terminus, GGGGS linker (SEQ ID 217 & 232)	0	36.9 and 35.9	58.7 and 59.2	66 and 66.5	59.5 and 60.9	448.47 and 374.76	328.62 and 234	53.4 and 44.84	cytotoxicity (FIG. 38G) (CD33+ MOLM14 cells; switch 0.64 pM): 5.9 and 4.6
hP67.6 NTBV: anti-CD33 hP67.6 Fab, N-terminal bivalent (SEQ ID 217 & 220)	0	23.6 and 28.4	55.4 and 57.1	69.7 and 69.2	69.3 and 69.5	957.81 and 958.26	936.57 and 898.28	98.48 and 97.95	cytotoxicity (FIG. 38G) (CD33+ MOLM14 cells; switch 0.64 pM): 0.9 and 0.8
B1	0	10.3 and 8.3	47.8 and 45.5	65 and 64.4	69.4 and 70.2	1037.59 and 876.36	861.13 and 653	114.13 and 87.74	
